Data reported in patent US7015022B2, “Mammalian catalase-dependent oxidation processes and methods for stimulating oxidative activities” (University of Medicine & Dentistry of New Jersey, priority 2002, dated 2006).

Substrate: CC(=O)N1c2ccc(O)cc2Oc2cc(O)ccc21
Experiment: Catalase-dependent oxidation of AMPLEX-RED to resorufin in the absence of hydrogen peroxide (Lineweaver-Burke enzyme kinetics)
Assay type: biochemical, bovine
Conditions: other: Lineweaver-Burke analysis, catalase 1 mg/ml, 50 mM phosphate buffer pH 7.4, room temperature, no hydrogen peroxide
Experimental: Reactions were carried out in buffer consisting of 50 mM phosphate buffer, pH 7.4 and 1.0 mg/ml of the catalase at room temperature (22° C.) in a reaction volume of 0.1 ml. […] Standard reaction mixtures contain 20 nmoles of the substrate. Detection of the fluorescent product resorufin was measured using an HTS 7000 Plus Bio Assay Reader (Perkin Elmer, Beaconsfield, Buckinghamsire, UK) using a 540 nm excitation filter and a 595 nm emission filter.

B1: mammalian catalase (Bos taurus) (protein)
chain: ADNRDPASDQMKHWKEQRAAQKPDVLTTGGGNPVGDKLNSLTVGPRGPLLVQDVVFTDEMAHFDRERIPERVVHAKGAGAFGYFEVTHDITRYSKAKVFEHIGKRTPIAVRFSTVAGESGSADTVRDPRGFAVKFYTEDGNWDLVGNNTPIFFIRDALLFPSFIHSQKRNPQTHLKDPDMVWDFWSLRPESLHQVSFLFSDRGIPDGHRHMNGYGSHTFKLVNANGEAVYCKFHYKTDQGIKNLSVEDAARLAHEDPDYGLRDLFNAIATGNYPSWTLYIQVMTFSEAEIFPFNPFDLTKVWPHGDYPLIPVGKLVLNRNPVNYFAEVEQLAFDPSNMPPGIEPSPDKMLQGRLFAYPDTHRHRLGPNYLQIPVNCPYRARVANYQRDGPMCMMDNQGGAPNYYPNSFSAPEHQPSALEHRTHFSGDVQRFNSANDDNVTQVRTFYLKVLNEEQRKRLCENIAGHLKDAQLFIQKKAVKNFSDVHPEYGSRIQALLDKYNEEKPKNAVHTYVQHGSHLSAREKANL
notes: purified catalases obtained from a variety of sources including enzyme from mouse and bovine liver; purchased Sigma Chemical Co., St. Louis, Mo; host or cells: liver tissue (mouse and bovine named)
- Km: 244 µM
- Vmax: 4.74e-05 M/s
